Assay results: a protein production outcome set (Wang et al. 2014)

Experiment: label from the status in PepcDB records

Sequence | protein production
MVMIMELLYAITAFILGMLHALEPGHGKSVVAAYILGTKADLKDAILLGTTITISHTAVIFLLGILSIYLLESLNVDVVHDMMSVVGGLILIAVGIWIIRSYLHPHEHKVDTKKGVITLGLSAGLVPCPAALAVLLLSISSGNLIDGLIYVAIFSIGLAISLTGLAVAFVESKELIKKYVGNRKVSKLPLISGSIIILIGLYTIAHPILEHAIV | failed
MYFVDRSKIEKTLGFFEHQLALFDSQTDWQSEIGELALQRIGHLLIECILDTGNDMIDGFIMRDPGSYDDIMDILVDEKVVTEKEGDELKKLIAYRKTLVQQYLLADSGELYRLIKAHQTALQDFPKRIRSYLETELGPVSAFK | not failed
MGLKSNSAILPKALFCWSGGKDSAYCLHKVLLEKQFDVCYLLTTVNDTFKRISMHGVRETLLDKQTESIGIPCIKIRIKEGTNSEYEQLMETTLLKAKEEGITHVIFGDIFLEDLRTYRENNLDKVGLQAVFPLWKMDTGILIRDFIRKKFKTILCCINDGYLDETWAGREIDAVFIAQLPGHVDPCGENGEYHTFCYDGPLFQKAITVSTGEKIYKPLDYSLDDVCQSTVPTKGFWYCDLIPD | failed
MGHHHHHHSHMKEDQKNKIPEDILKQLLSVDPETVYASGYASWQEGDYSRAVIDFSWLVMAQPWSWRAHIALAGTWMMLKEYTTAINFYGHALMLDASHPEPVYQTGVCLKMMGEPGLAREAFQTAIKMSYADASWSEIRQNAQKMVDTLIA | failed
MTEVYDLEITTNATDFPMEKKYPAGMSLNDLKKKLELVVGTTVDSMRIQLFDGDDQLKGELTDGAKSLKDLGVRDGYRIHAVDVTGGNEDFKDESMVEKYEMSDDTYGKRTDSVRAWKKKMQEEQGSAAPMENESDKLNEEAAKNIMVGNRCEVTVGAQMARRGEVAYVGATKFKEGVWVGVKYDEPVGKNDGSVAGVRYFDCDPKYGGFVRPVDVKVGDFPELSIDEI | not failed
MFLVTGATGDIGRRVIRLLREHNHSVRGFARLTSRYGELEHRGANIFIGDLRREQDIEKACQGVQYIISAHGSDNDALTLDYRANIALIDQAKANGVQHFVFISVLGAERGYEDAPVFKAKRAVENYLAASGLNYTILRPAGLASNLLPLAERFRETGLYLLIGDPKNRTSIVSTDDLARIVVDSVTVPEARNQIFSVGGPEILLREDIPQIFSHIFKKEPIVVNSPLLVIDGLRGVLGLINPEAQQALGTFRTLLSNEFFCRKDEIAKLEQTFNFPLETLESFLRRYLAVLEHHHHHH | failed
VNELLHLAPNVWPRNTTRDEVGVVCIAGIPLTQLAQEYGTPLFVIDEDDFRSRCRETAAAFGSGANVHYAAKAFLCSEVARWISEEGLCLDVCTGGELAVALHASFPPERITLHGNNKSVSELTAAVKAGVGHIVVDSMTEIERLDAIAGEAGIVQDVLVRLTVGVEAHTHEFISTAHEDQKFGLSVASGAAMAAVRRVFATDHLRLVGLHSHIGSQIFDVDGFELAAHRVIGLLRDVVGEFGPEKTAQIATVDLGGGLGISYLPSDDPPPIAELAAKLGTIVSDESTAVGLPTPKLVVEPGRAIAGPGTITLYEVGTVKDVDVSATAHRRYVSVDGGMSDNIRTALYGAQYDVRLVSRVSDAPPVPARLVGKHCESGDIIVRDTWVPDDIRPGDLVAVAATGAYCYSLSSRYNMVGRPAVVAVHAGNARLVLRRETVDDLLSLEVR | not failed
MDIVTLKDFYASVLGKRVQETLCGQLNLCWPDLTGKRVMGFGYALPYLSALRMRAQQCLAFMPAGQGALPWPCADKVATALVFEEDLPLPDASIDCILLIHALEYTENSFETLNEIWRVLVPNGQLIVIVPNRSGLWARNACTPFGYGEPYSRQQIVRLFEKTHFVSGSIQEVVHYMPSSGSVSRFFSFFYEPVARHLLPYFGGLLICQAQKRVYQGLEHHHHHH | failed
MLITLPYFLTRKTLPGYIIGGDTLVHAAIARGIYLGRNPFLDQTYNVYPSWYPFLYHLIVAVTSKVFQISIEGAMLLLQATLAILGCIVFFYVAKNLWGSTAGIMAMAFSLMFLPFHRYPNPKELIPIFGALFILYFVKERWVLSGIILGLGLWSHYASMFPLFVLPLTVYIFTRRKEVITPLLISTIVFLPFAINIISHADHIIPKVEDIYAFWKTDTLEKKLLSLLPPIYLVPFLLLSLYKFYKRRDYEGTVLFLSVVTIWGLRLLPESLKPFGIQIWSTRFTVPLPTIYLLLSAYGISEIKITSKDIKTIFLGILLFLIPIASALNFWEAIKRDPFIWVSEFELKEYFPEEHFIEVSEWIKANTERDNLIATSEEAGMMINALTGRPIMATLYGHGNTFLDNEIRRKDLELLFTADCKEKAKIISKYKIKYIVLDTFVYKRWEVKDMSCIAEPVYKVENVTILRVNLNITYTNKGEIRMNKKLFWLLLIAFVVNFSVIYGRKNPCWRKWRRYDNSHGHD | failed
